Drawing on the supplement of paper PMC10567573, this text covers protein stability index for 94 variants.

The labels stand for the following.
B1: FAM46C (parent)
chain: VRSRLEEAGIKVHDVRLNGSAAGH
B2: CLCN6 (parent)
chain: TGLVGLFVDFFVRLFTQLKFGVVQ
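Note: lentivirally expressed fusions sorted by FACS into six bins by GFP to DsRed ratio, PSI derived from sequencing read proportions per bin multiplied by bin number.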

Variants of B1 are the subject of one series. The experiment in a line: protein stability index of a GFP-peptide fusion (GPS, HEK-293T) (PSI 1-6); higher = more stable. Conditions: c terminus: a fixed tail appended.
On to QRSRLEEAGIKVHDVRLNGSAAGH [V1Q], for which the protein stability index worked out at 4.59.
For the variant RRSRLEEAGIKVHDVRLNGSAAGH [V1R], the protein stability index is 4.11.
On to FRSRLEEAGIKVHDVRLNGSAAGH [V1F], for which the protein stability index is 2.56.
As for SRSRLEEAGIKVHDVRLNGSAAGH [V1S], the protein stability index worked out at 4.18.
For NRSRLEEAGIKVHDVRLNGSAAGH [V1N], the protein stability index turned out to be 3.5.
YRSRLEEAGIKVHDVRLNGSAAGH [V1Y]: the protein stability index was 3.57.
Consider TRSRLEEAGIKVHDVRLNGSAAGH [V1T], for which the protein stability index was found to be 4.25.
For DRSRLEEAGIKVHDVRLNGSAAGH [V1D], the protein stability index stood at 4.33.
For the variant KRSRLEEAGIKVHDVRLNGSAAGH [V1K], the protein stability index worked out at 3.62.
For ARSRLEEAGIKVHDVRLNGSAAGH [V1A], the protein stability index came out at 3.16.
For PRSRLEEAGIKVHDVRLNGSAAGH [V1P], the protein stability index worked out at 4.38.
For the variant ERSRLEEAGIKVHDVRLNGSAAGH [V1E], the protein stability index was 3.44.
For MRSRLEEAGIKVHDVRLNGSAAGH [V1M], the protein stability index is 2.6.
Regarding HRSRLEEAGIKVHDVRLNGSAAGH [V1H], the protein stability index turned out to be 4.02.
For the variant LRSRLEEAGIKVHDVRLNGSAAGH [V1L], the protein stability index is 1.33.
Turning to VGSRLEEAGIKVHDVRLNGSAAGH [R2G], the protein stability index was 3.36.
On to VSSRLEEAGIKVHDVRLNGSAAGH [R2S], for which the protein stability index amounted to 4.37.
As for VDSRLEEAGIKVHDVRLNGSAAGH [R2D], the protein stability index is 4.25.
In the case of VYSRLEEAGIKVHDVRLNGSAAGH [R2Y], the protein stability index is 2.95.
For the variant VTSRLEEAGIKVHDVRLNGSAAGH [R2T], the protein stability index came to 3.82.
As for VLSRLEEAGIKVHDVRLNGSAAGH [R2L], the protein stability index was found to be 2.34.
On to VQSRLEEAGIKVHDVRLNGSAAGH [R2Q], for which the protein stability index came out at 2.58.
As to VMSRLEEAGIKVHDVRLNGSAAGH [R2M], the protein stability index stood at 2.33.
The same measure, in the same setting: for VESRLEEAGIKVHDVRLNGSAAGH [R2E] the value was 3.85; for VPSRLEEAGIKVHDVRLNGSAAGH [R2P], 3.89.
The same measure, in the same setting: the result for VISRLEEAGIKVHDVRLNGSAAGH [R2I] reads 2.15; that for VVSRLEEAGIKVHDVRLNGSAAGH [R2V], 2.13.
Take VWSRLEEAGIKVHDVRLNGSAAGH [R2W]: the protein stability index is 2.28.
Same read-out and setting: for VCSRLEEAGIKVHDVRLNGSAAGH [R2C] the value was 2.3; for VASRLEEAGIKVHDVRLNGSAAGH [R2A], 3.04.
Take VHSRLEEAGIKVHDVRLNGSAAGH [R2H]: the protein stability index was 2.4.
For VFSRLEEAGIKVHDVRLNGSAAGH [R2F], the protein stability index was 2.04.
As to VRFRLEEAGIKVHDVRLNGSAAGH [S3F], the protein stability index came to 1.69.
In the case of VRGRLEEAGIKVHDVRLNGSAAGH [S3G], the protein stability index came to 2.91.

The variants in a further series derive from B2. Described as above. Conditions: c terminus: a fixed tail appended.
Turning to TGLVGLFVDFFVRLFTQLKFGVYQ [V23Y], the protein stability index came out at 2.51.
For the variant TGLVGLFVDFFVRLFTQLKFGVCQ [V23C], the protein stability index was found to be 2.78.
Same read-out and setting: for TGLVGLFVDFFVRLFTQLKFGVGQ [V23G] the value was 2.18; for TGLVGLFVDFFVRLFTQLKFGVRQ [V23R], 3.09.
Take TGLVGLFVDFFVRLFTQLKFGVTQ [V23T]: the protein stability index stood at 2.36.
Regarding TGLVGLFVDFFVRLFTQLKFGVNQ [V23N], the protein stability index was determined as 2.
TGLVGLFVDFFVRLFTQLKFGVPQ [V23P]: the protein stability index was 1.97.
As for TGLVGLFVDFFVRLFTQLKFGVKQ [V23K], the protein stability index turned out to be 2.45.
Take TGLVGLFVDFFVRLFTQLKFGVFQ [V23F]: the protein stability index was found to be 2.98.
Still for that read-out and setting: for TGLVGLFVDFFVRLFTQLKFGVEQ [V23E] the value was 1.94.
TGLVGLFVDFFVRLFTQLKFGVIQ [V23I]: the protein stability index worked out at 2.23.
As for TGLVGLFVDFFVRLFTQLKFGVQQ [V23Q], the protein stability index came out at 2.77.
For TGLVGLFVDFFVRLFTQLKFGVLQ [V23L], the protein stability index was 2.92.
Still for that read-out and setting: for TGLVGLFVDFFVRLFTQLKFGVWQ [V23W] the value was 3.3; for TGLVGLFVDFFVRLFTQLKFGVMQ [V23M], 2.68.
On to TGLVGLFVDFFVRLFTQLKFGVAQ [V23A], for which the protein stability index was found to be 2.27.
Consider TGLVGLFVDFFVRLFTQLKFGVHQ [V23H], for which the protein stability index was found to be 1.81.
As for TGLVGLFVDFFVRLFTQLKFGVDQ [V23D], the protein stability index amounted to 2.41.
As to TGLVGLFVDFFVRLFTQLKFGVSQ [V23S], the protein stability index came to 2.73.
As to TGLVGLFVDFFVRLFTQLKFGVVE [Q24E], the protein stability index was 2.08.
On to TGLVGLFVDFFVRLFTQLKFGVVT [Q24T], for which the protein stability index came out at 1.6.
Regarding TGLVGLFVDFFVRLFTQLKFGVVP [Q24P], the protein stability index turned out to be 1.88.
For TGLVGLFVDFFVRLFTQLKFGVVI [Q24I], the protein stability index is 2.66.
On the same count and under the same terms, the result for TGLVGLFVDFFVRLFTQLKFGVVV [Q24V] reads 1.71; that for TGLVGLFVDFFVRLFTQLKFGVVF [Q24F], 1.18; that for TGLVGLFVDFFVRLFTQLKFGVVG [Q24G], 2.32.
With TGLVGLFVDFFVRLFTQLKFGVVS [Q24S], the protein stability index is 2.94.
Turning to TGLVGLFVDFFVRLFTQLKFGVVW [Q24W], the protein stability index is 2.36.
Same read-out and setting: the result for TGLVGLFVDFFVRLFTQLKFGVVD [Q24D] reads 2.46; that for TGLVGLFVDFFVRLFTQLKFGVVY [Q24Y], 1.74.
With TGLVGLFVDFFVRLFTQLKFGVVM [Q24M], the protein stability index was 1.9.
Still for that read-out and setting: the result for TGLVGLFVDFFVRLFTQLKFGVVN [Q24N] reads 2.55; that for TGLVGLFVDFFVRLFTQLKFGVVK [Q24K], 3.16; that for TGLVGLFVDFFVRLFTQLKFGVVL [Q24L], 2.14.
For the variant TGLVGLFVDFFVRLFTQLKFGVVA [Q24A], the protein stability index was determined as 1.66.
On to TGLVGLFVDFFVRLFTQLKFGVVR [Q24R], for which the protein stability index was 3.77.
On the same count and under the same terms, the result for TGLVGLFVDFFVRLFTQLKFGVVC [Q24C] reads 1.26; that for TGLVGLFVDFFVRLFTQLKFGVVH [Q24H], 2.07.
Still for that read-out and setting: the result for TGLVGLFVDFFVRLFTQLKFGEVQ [V22E] reads 3.23; that for TGLVGLFVDFFVRLFTQLKFGPVQ [V22P], 2.07.
With TGLVGLFVDFFVRLFTQLKFGIVQ [V22I], the protein stability index worked out at 2.84.
Regarding TGLVGLFVDFFVRLFTQLKFGLVQ [V22L], the protein stability index turned out to be 2.5.
Consider TGLVGLFVDFFVRLFTQLKFGHVQ [V22H], for which the protein stability index was determined as 1.92.
Turning to TGLVGLFVDFFVRLFTQLKFGTVQ [V22T], the protein stability index worked out at 2.18.
For the variant TGLVGLFVDFFVRLFTQLKFGCVQ [V22C], the protein stability index came out at 1.87.
Turning to TGLVGLFVDFFVRLFTQLKFGFVQ [V22F], the protein stability index came to 2.6.
The same measure, in the same setting: for TGLVGLFVDFFVRLFTQLKFGYVQ [V22Y] the value was 2.36.
As for TGLVGLFVDFFVRLFTQLKFGNVQ [V22N], the protein stability index turned out to be 1.25.
TGLVGLFVDFFVRLFTQLKFGAVQ [V22A]: the protein stability index is 1.77.
Turning to TGLVGLFVDFFVRLFTQLKFGKVQ [V22K], the protein stability index amounted to 2.26.
Regarding TGLVGLFVDFFVRLFTQLKFGWVQ [V22W], the protein stability index turned out to be 2.72.
As for TGLVGLFVDFFVRLFTQLKFGRVQ [V22R], the protein stability index was 2.34.
Take TGLVGLFVDFFVRLFTQLKFGGVQ [V22G]: the protein stability index came to 1.72.
On to TGLVGLFVDFFVRLFTQLKFGSVQ [V22S], for which the protein stability index stood at 2.33.
In the case of TGLVGLFVDFFVRLFTQLKFGQVQ [V22Q], the protein stability index was found to be 2.48.
Consider TGLVGLFVDFFVRLFTQLKFGMVQ [V22M], for which the protein stability index is 2.58.
TGLVGLFVDFFVRLFTQLKFVVVQ [G21V]: the protein stability index amounted to 3.
Regarding TGLVGLFVDFFVRLFTQLKFWVVQ [G21W], the protein stability index was found to be 3.59.
With TGLVGLFVDFFVRLFTQLKFYVVQ [G21Y], the protein stability index was 3.39.
Regarding TGLVGLFVDFFVRLFTQLKFTVVQ [G21T], the protein stability index was determined as 2.4.
